Reference: patent publication US20150086555A1 (THERACLONE SCIENCES, published 2015)

B1: TCN-556 (5089_K12) (antibody, V domains shown)
VH: QVQLVQSGAEVKKPGASVKVSCKASGYTFIGYDMHWVRQAPGQGLEWMGWINAKRGGTNYAQKFQGRVTMTRDTSISTAYMELNSLRSDDTAVYYCARGVGSRTTIFGVLNPEFDYWGQGTLVTVSS
VL: QSALTQPPSASGSPGQSVTISCTGSSSDVGGYDYVSWYQQHPGKAPKLLIYEVTKRPSGVPDRFSGSKSGNTASLTVSGLQAEDEADYYCSSYAGNYNHVFGPGTKVTVL
B2: TCN-560 (5084_P10) (antibody, V domains shown)
VH: EVQLVESGGGLVQPGGSLRLSCAASGFIFRNYWMSWVRQAPGKGLEWVANIKQDGREKYYVDSLRGRVNISRDNAENSLYLHMNSLRVEDTAVYFCARARMVVVTGDGFDVWGHGTMVTVSS
VL: DIQMTQSPSSLSASVGDRVTITCRASQNIKRYFNWYQQKPGKAPKLLIYAASNLENGVPSRFSGSGSGTDFTLTISSLQPEDFATYYCQQSFSKSWTFGQGTNVDIK
B3: TCN-533 (5256_A17a) (antibody, V domains shown)
VH: QVQLVQSGADVKKPGSSVTVSCKASGGSFSNYGINWVRQAPGQGLEWMGGIIPLINAPNYAPKFQGRVTITADMFSNIVSLQLTSLRTDDTAVYYCARRKMTTAIDYWGQGTLVTVSS
VL: QPVLTQPPSASASLGASVTLTCTLSSAYSNYKVDWYQQRPGKGPRFVMRVGTGGIVGSKGDGIPDRFSVLGSGLNRYLTIKNIQEEDESDYHCGADHGSGSNFVSPYVFGGGTKLTVL
B4: TCN-533 (5256_A17a) (antibody, V domains shown)
VH: B3 VH
VL: B3 VL

Assays:
[1] = molecular target: hemagglutinin on live influenza A virus, A/California/4/09 H1N1 (Influenza A virus …); assay: cell-based or functional assay
[2] = molecular target: hemagglutinin on whole influenza A virions, A/Wisconsin/67/05 H3N2 (Influenza A virus …); assay: cell-based or functional assay
[3] = molecular target: hemagglutinin on whole influenza A virions, A/Solomon Islands/3/06 H1N1 (Influenza A virus A/Solomon …); assay: cell-based or functional assay
[4] = molecular target: recombinant soluble homotrimeric HA, A/Solomon Islands/3/06 H1N1 (Influenza A virus A/Solomon …); assay: microarray, transfection SN IgG, trimeric HA
[5] = molecular target: recombinant soluble homotrimeric HA, A/Indonesia/5/05 H5N1 (Influenza A virus …); assay: microarray, transfection SN IgG, trimeric HA
[6] = molecular target: recombinant soluble homotrimeric HA, A/Netherlands/219/03 H7N7 (Influenza A virus …); assay: microarray, transfection SN IgG, trimeric HA
[7] = molecular target: recombinant soluble homotrimeric HA, A/Vietnam/1203/04 H5N1 (Influenza A virus …); assay: microarray, transfection SN IgG, trimeric HA
[8] = molecular target: recombinant soluble homotrimeric HA, A/California/4/09 H1N1 (Influenza A virus …); assay: microarray, transfection SN IgG, trimeric HA
[9] = molecular target: recombinant soluble homotrimeric HA, A/Wisconsin/67/05 H3N2 (Influenza A virus …); assay: microarray, transfection SN IgG, trimeric HA
[10] = molecular target: recombinant soluble homotrimeric HA, A/South Carolina/1/18 H1N1 (Influenza A virus A/South Carolina/1/18 …); assay: microarray, transfection SN IgG, trimeric HA
[11] = molecular target: recombinant soluble homotrimeric HA, A/duck/Yangzhou/02/05 H8N4 (Influenza A virus …); assay: microarray, transfection SN IgG, trimeric HA
[12] = molecular target: recombinant soluble homotrimeric HA, A/Japan/305/57 H2N2 (Influenza A virus A/Japan/305/1957(H2N2)); assay: microarray, transfection SN IgG, trimeric HA
[13] = molecular target: recombinant soluble homotrimeric HA, A/Anhui/1/05 H5N1 (Influenza A virus A/Anhui/1/2005(H5N1)); assay: microarray, transfection SN IgG, trimeric HA
[14] = molecular target: recombinant soluble homotrimeric HA, A/chicken/Vietnam/NCVD-016/08 H5N1 (Influenza A virus …); assay: microarray, transfection SN IgG, trimeric HA
[15] = molecular target: recombinant soluble homotrimeric HA, A/swine/Ontario/01911-2/99 H4N6 (Influenza A virus …); assay: microarray, transfection SN IgG, trimeric HA
[16] = molecular target: recombinant soluble homotrimeric HA, A/northern shoveler/California/HKWF115/07 H6N4 (Influenza A virus A/northern …); assay: microarray, transfection SN IgG, trimeric HA
[17] = molecular target: recombinant soluble homotrimeric HA, A/Hong Kong/156/97 H5N1 (Influenza A virus A/Hong Kong/156/97 …); assay: microarray, transfection SN IgG, trimeric HA
[18] = molecular target: recombinant soluble homotrimeric HA, A/Egypt/3300-NAMRU3/08 H5N1 (Influenza A virus …); assay: microarray, transfection SN IgG, trimeric HA
[19] = molecular target: recombinant soluble homotrimeric HA of A/Wisconsin/67/05 (H3N2) (Influenza A virus …); assay: trimeric HA microarray, transfection supernatant set 3
[20] = molecular target: recombinant soluble homotrimeric HA of A/Japan/305/57 (H2N2) (Influenza A virus A/Japan/305/1957(H2N2)); assay: as above
[21] = molecular target: recombinant soluble homotrimeric HA of A/duck/Yangzhou/02/05 (H8N4) (Influenza A virus …); assay: as above
[22] = molecular target: recombinant soluble homotrimeric HA of A/chicken/Vietnam/NCVD-016/08 (H5N1) (Influenza A virus …); assay: as above
[23] = molecular target: recombinant soluble homotrimeric HA of A/California/4/09 (H1N1) (Influenza A virus …); assay: as above
[24] = molecular target: recombinant soluble homotrimeric HA of A/Egypt/3300-NAMRU3/08 (H5N1) (Influenza A virus …); assay: as above
[25] = molecular target: recombinant soluble homotrimeric HA of A/South Carolina/1/18 (H1N1) (Influenza A virus A/South Carolina/1/18 …); assay: as above
[26] = molecular target: recombinant soluble homotrimeric HA of A/Vietnam/1203/04 (H5N1) (Influenza A virus …); assay: as above
[27] = molecular target: recombinant soluble homotrimeric HA of A/Solomon Islands/3/06 (H1N1) (Influenza A virus A/Solomon …); assay: as above
[28] = molecular target: recombinant soluble homotrimeric HA of A/Indonesia/5/05 (H5N1) (Influenza A virus …); assay: as above
[29] = molecular target: recombinant soluble homotrimeric HA of A/Hong Kong/1073/99 (H9N2) (Influenza A virus A/Hong Kong/1073/99 …); assay: as above
[30] = molecular target: recombinant soluble homotrimeric HA of A/Hong Kong/2108/03 (H9N2) (Influenza A virus A/HK/2108/2003(H9N2)); assay: as above
[31] = molecular target: recombinant soluble homotrimeric HA of A/Anhui/1/05 (H5N1) (Influenza A virus A/Anhui/1/2005(H5N1)); assay: as above
[32] = molecular target: recombinant soluble homotrimeric HA of A/Netherlands/219/03 (H7N7) (Influenza A virus …); assay: as above
[33] = molecular target: recombinant soluble homotrimeric HA of A/northern shoveler/California/HKWF115/07 (H6) (Influenza A virus A/northern …); assay: as above
[34] = molecular target: recombinant homotrimeric HA A/California/4/09 H1N1 (Influenza A virus …); assay: protein microarray, purified IgG, trimeric HA
[35] = molecular target: recombinant homotrimeric HA A/Egypt/3300-NAMRU3/08 H5N1 (Influenza A virus …); assay: protein microarray, purified IgG, trimeric HA
[36] = molecular target: recombinant homotrimeric HA A/Hong Kong/156/97 H5N1 (Influenza A virus A/Hong Kong/156/97 …); assay: protein microarray, purified IgG, trimeric HA
[37] = molecular target: recombinant homotrimeric HA A/Hong Kong/1073/99 H9N2 (Influenza A virus A/Hong Kong/1073/99 …); assay: protein microarray, purified IgG, trimeric HA
[38] = molecular target: recombinant homotrimeric HA A/Hong Kong/2108/03 H9N2 (Influenza A virus A/HK/2108/2003(H9N2)); assay: protein microarray, purified IgG, trimeric HA
[39] = molecular target: recombinant homotrimeric HA A/South Carolina/1/18 H1N1 (Influenza A virus A/South Carolina/1/18 …); assay: protein microarray, purified IgG, trimeric HA
[40] = molecular target: recombinant homotrimeric HA A/chicken/Vietnam/NCVD-016/08 H5N1 (Influenza A virus …); assay: protein microarray, purified IgG, trimeric HA
[41] = molecular target: recombinant homotrimeric HA A/northern shoveler/California/HKWF115/07 H6N4 (Influenza A virus A/northern …); assay: protein microarray, purified IgG, trimeric HA
[42] = molecular target: recombinant homotrimeric HA A/Indonesia/5/05 H5N1 (Influenza A virus …); assay: protein microarray, purified IgG, trimeric HA
[43] = molecular target: recombinant homotrimeric HA A/Netherlands/219/03 H7N7 (Influenza A virus …); assay: protein microarray, purified IgG, trimeric HA
[44] = molecular target: recombinant homotrimeric HA A/Vietnam/1203/04 H5N1 (Influenza A virus …); assay: protein microarray, purified IgG, trimeric HA
[45] = molecular target: recombinant homotrimeric HA A/Japan/305/57 H2N2 (Influenza A virus A/Japan/305/1957(H2N2)); assay: protein microarray, purified IgG, trimeric HA
[46] = molecular target: recombinant homotrimeric HA A/Solomon Islands/3/06 H1N1 (Influenza A virus A/Solomon …); assay: protein microarray, purified IgG, trimeric HA
[47] = molecular target: recombinant homotrimeric HA A/Anhui/1/05 H5N1 (Influenza A virus A/Anhui/1/2005(H5N1)); assay: protein microarray, purified IgG, trimeric HA
[48] = molecular target: recombinant homotrimeric HA A/Wisconsin/67/05 H3N2 (Influenza A virus …); assay: protein microarray, purified IgG, trimeric HA

Binder	% Neutralization [1]	% Neutralization [2]	% Neutralization [3]	Trimeric HA Binding: RLU [4]	Trimeric HA Binding: RLU [5]	Trimeric HA Binding: RLU [6]	Trimeric HA Binding: RLU [7]	Trimeric HA Binding: RLU [8]	Trimeric HA Binding: RLU [9]	Trimeric HA Binding: RLU [10]	Trimeric HA Binding: RLU [11]	Trimeric HA Binding: RLU [12]	Trimeric HA Binding: RLU [13]	Trimeric HA Binding: RLU [14]	Trimeric HA Binding: RLU [15]	Trimeric HA Binding: RLU [16]	Trimeric HA Binding: RLU [17]	Trimeric HA Binding: RLU [18]	also measured
B1	0%	15%	0%	23400 RLU	15200 RLU	43600 RLU	17400 RLU	20900 RLU	44700 RLU	32700 RLU	22400 RLU	22800 RLU	13800 RLU	22700 RLU	19300 RLU	34800 RLU	24600 RLU	16600 RLU	–
B2	0%	4%	0%	22400 RLU	17000 RLU	32100 RLU	19500 RLU	31100 RLU	55400 RLU	30500 RLU	27900 RLU	25900 RLU	18600 RLU	18200 RLU	16800 RLU	35900 RLU	29300 RLU	18700 RLU	–
B3	–	–	–	–	–	–	–	–	–	–	–	–	–	–	–	–	–	–	Trimeric HA Binding: RLU [19]: 16100 RLU; Trimeric HA Binding: RLU [20]: 18600 RLU; Trimeric HA Binding: RLU [21]: 711 RLU; Trimeric HA Binding: RLU [22]: 24600 RLU; Trimeric HA Binding: RLU [23]: 6880 RLU; Trimeric HA Binding: RLU [24]: 18600 RLU; Trimeric HA Binding: RLU [25]: 16400 RLU; Trimeric HA Binding: RLU [26]: 11700 RLU; Trimeric HA Binding: RLU [27]: 15500 RLU; Trimeric HA Binding: RLU [28]: 28300 RLU; Trimeric HA Binding: RLU [29]: 23800 RLU; Trimeric HA Binding: RLU [30]: 33 RLU; Trimeric HA Binding: RLU [31]: 301 RLU; Trimeric HA Binding: RLU [32]: 209 RLU; Trimeric HA Binding: RLU [33]: 7810 RLU
B4	–	–	–	–	–	–	–	–	–	–	–	–	–	–	–	–	–	–	Trimeric HA Binding: RLU [34]: 24000 RLU; Trimeric HA Binding: RLU [35]: 20600 RLU; Trimeric HA Binding: RLU [36]: 13200 RLU; Trimeric HA Binding: RLU [37]: 5810 RLU; Trimeric HA Binding: RLU [38]: 164 RLU; Trimeric HA Binding: RLU [39]: 8670 RLU; Trimeric HA Binding: RLU [40]: 5470 RLU; Trimeric HA Binding: RLU [41]: 20400 RLU; Trimeric HA Binding: RLU [42]: 23100 RLU; Trimeric HA Binding: RLU [43]: 712 RLU; Trimeric HA Binding: RLU [44]: 26900 RLU; Trimeric HA Binding: RLU [45]: 23400 RLU; Trimeric HA Binding: RLU [46]: 12000 RLU; Trimeric HA Binding: RLU [47]: 5650 RLU; Trimeric HA Binding: RLU [48]: 308 RLU
